Assay results: patent publication US8597645

B1: Caspase-8 (endogenous, in melanocytes and melanoma cells) (protein)
chain: MDFSRNLYDIGEQLDSEDLASLKFLSLDYIPQRKQEPIKDALMLFQRLQEKRMLEESNLSFLKELLFRINRLDLLITYLNTRKEEMERELQTPGRAQISAYRVMLYQISEEVSRSELRSFKFLLQEEISKCKLDDDMNLLDIFIEMEKRVILGEGKLDILKRVCAQINKSLLKIINDYEEFSKERSSSLEGSPDEFSNGEELCGVMTISDSPREQDSESQTLDKVYQMKSKPRGYCLIINNHNFAKAREKVPKLHSIRDRNGTHLDAGALTTTFEELHFEIKPHDDCTVEQIYEILKIYQLMDHSNMDCFICCILSHGDKGIIYGTDGQEAPIYELTSQFTGLKCPSLAGKPKVFFIQACQGDNYQKGIPVETDSEEQPYLEMDLSSPQTRYIPDEADFLLGMATVNNCVSYRNPAEGTWYIQSLCQSLRERCPRGDDILTILTEVNYEVSNKDDKKNMGKQMPQPTFTLRKKLVFPSD
B2: Recombinant caspase-8 (protein)
chain: SESQTLDKVYQMKSKPRGYCLIINNHNFAKAREKVPKLHSIRDRNGTHLDAGALTTTFEELHFEIKPHDDCTVEQIYEILKIYQLMDHSNMDCFICCILSHGDKGIIYGTDGQEAPIYELTSQFTGLKCPSLAGKPKVFFIQACQGDNYQKGIPVETDSEEQPYLEMDLSSPQTRYIPDEADFLLGMATVNNCVSYRNPAEGTWYIQSLCQSLRERCPRGDDILTILTEVNYEVSNKDDKKNMGKQMPQPTFTLRKKLVFPSD

Tests used:
[1] = biological target: T1, Cell permeable caspase inhibitor containing the sequence IETD, P08620
T1 chain: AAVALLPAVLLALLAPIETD

[2] = biological target: T2, p120^CTN (immunoprecipitated), O60716
T2 chain: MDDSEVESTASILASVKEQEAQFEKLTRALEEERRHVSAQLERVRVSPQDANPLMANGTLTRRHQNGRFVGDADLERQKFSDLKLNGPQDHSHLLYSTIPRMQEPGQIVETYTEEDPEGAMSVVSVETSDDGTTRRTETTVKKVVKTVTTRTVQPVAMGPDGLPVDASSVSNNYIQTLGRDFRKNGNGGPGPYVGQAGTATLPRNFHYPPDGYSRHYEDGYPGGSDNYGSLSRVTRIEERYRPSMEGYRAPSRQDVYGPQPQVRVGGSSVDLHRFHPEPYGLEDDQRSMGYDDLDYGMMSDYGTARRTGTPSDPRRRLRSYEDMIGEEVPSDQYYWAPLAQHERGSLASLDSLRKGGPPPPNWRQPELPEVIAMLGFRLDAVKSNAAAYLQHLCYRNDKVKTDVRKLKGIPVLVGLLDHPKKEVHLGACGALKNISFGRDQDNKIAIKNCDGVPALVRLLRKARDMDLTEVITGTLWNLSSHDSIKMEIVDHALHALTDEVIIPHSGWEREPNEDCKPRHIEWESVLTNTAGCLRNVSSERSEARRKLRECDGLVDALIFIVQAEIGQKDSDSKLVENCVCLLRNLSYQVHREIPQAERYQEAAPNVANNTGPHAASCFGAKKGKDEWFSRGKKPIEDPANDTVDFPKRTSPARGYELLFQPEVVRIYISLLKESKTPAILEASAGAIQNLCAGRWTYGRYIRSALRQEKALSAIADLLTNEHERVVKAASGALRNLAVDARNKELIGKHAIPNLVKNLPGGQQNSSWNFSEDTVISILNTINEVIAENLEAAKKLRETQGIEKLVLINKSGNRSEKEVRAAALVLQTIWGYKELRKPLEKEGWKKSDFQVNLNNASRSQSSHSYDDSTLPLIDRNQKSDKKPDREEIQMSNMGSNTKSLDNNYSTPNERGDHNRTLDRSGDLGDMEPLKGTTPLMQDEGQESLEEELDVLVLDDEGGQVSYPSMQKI

[3] = biological target: T3, β-catenin (immunoprecipitated), P35222
T3 chain: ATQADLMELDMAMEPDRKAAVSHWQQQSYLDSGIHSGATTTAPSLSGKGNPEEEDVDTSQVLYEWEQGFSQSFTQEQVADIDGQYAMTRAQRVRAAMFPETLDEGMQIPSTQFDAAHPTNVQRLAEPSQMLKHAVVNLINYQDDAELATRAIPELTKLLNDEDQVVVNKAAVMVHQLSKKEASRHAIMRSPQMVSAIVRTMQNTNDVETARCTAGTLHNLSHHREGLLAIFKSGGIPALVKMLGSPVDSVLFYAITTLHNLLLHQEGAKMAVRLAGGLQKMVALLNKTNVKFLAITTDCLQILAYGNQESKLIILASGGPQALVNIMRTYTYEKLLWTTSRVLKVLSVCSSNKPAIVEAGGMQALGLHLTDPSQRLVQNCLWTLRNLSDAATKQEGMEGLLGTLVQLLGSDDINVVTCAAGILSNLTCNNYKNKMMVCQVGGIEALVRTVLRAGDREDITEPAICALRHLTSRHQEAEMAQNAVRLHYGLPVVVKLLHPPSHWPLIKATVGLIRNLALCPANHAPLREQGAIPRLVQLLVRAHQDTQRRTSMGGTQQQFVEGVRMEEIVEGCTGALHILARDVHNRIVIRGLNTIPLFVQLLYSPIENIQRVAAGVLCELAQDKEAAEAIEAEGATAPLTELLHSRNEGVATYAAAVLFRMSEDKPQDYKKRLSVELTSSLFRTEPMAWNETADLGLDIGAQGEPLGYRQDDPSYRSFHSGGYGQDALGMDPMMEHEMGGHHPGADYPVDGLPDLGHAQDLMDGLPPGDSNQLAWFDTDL

Row | Protein | Proteolytic processing of caspase-8 (immunoblot) [1] | In vitro cleavage of the immunoprecipitated protein [2] | In vitro cleavage of the immunoprecipitated protein [3]
1 | B1 | Treatment of cells with a cell permeable inhibitor of caspase-8 prevented its proteolytic processing |  | 
2 | B2 |  | Cleavage of immunoprecipitated β-catenin and p120^CTN by recombinant caspase-8 in vitro also was not demonstrated | Cleavage of immunoprecipitated β-catenin and p120^CTN by recombinant caspase-8 in vitro also was not demonstrated
